Consider one molecule from patent US20250368754A1 (KANAPH THERAPEUTICS, published 2025).

The target in assay [1] is T1, human FAP on HEK293-hFAP cells (human, UniProt Q12884 1-760).
T1 construct: whole, on cells; also called human FAP-expressing cell line
T1 sequence (looked up): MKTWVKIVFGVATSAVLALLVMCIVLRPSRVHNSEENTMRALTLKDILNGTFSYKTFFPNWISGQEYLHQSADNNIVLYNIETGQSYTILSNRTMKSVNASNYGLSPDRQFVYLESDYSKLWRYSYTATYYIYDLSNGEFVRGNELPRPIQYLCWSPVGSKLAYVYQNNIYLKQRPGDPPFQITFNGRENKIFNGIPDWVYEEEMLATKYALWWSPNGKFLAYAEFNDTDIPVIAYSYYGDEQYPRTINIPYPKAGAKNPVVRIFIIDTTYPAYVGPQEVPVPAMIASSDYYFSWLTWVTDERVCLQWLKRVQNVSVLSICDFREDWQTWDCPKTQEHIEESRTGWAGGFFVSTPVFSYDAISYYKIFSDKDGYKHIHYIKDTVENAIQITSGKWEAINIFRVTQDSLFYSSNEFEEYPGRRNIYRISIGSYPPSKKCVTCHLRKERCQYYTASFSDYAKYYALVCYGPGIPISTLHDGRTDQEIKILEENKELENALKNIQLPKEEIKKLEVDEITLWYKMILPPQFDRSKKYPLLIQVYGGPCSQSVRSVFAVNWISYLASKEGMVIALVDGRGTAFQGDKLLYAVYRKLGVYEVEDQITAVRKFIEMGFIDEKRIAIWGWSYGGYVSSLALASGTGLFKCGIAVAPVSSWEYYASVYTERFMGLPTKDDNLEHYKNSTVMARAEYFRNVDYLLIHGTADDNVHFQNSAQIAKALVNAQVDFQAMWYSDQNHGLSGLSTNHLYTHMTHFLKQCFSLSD
As to the kind of experiment: flow cytometry on HEK293-hFAP cells, 1 µg protein, anti-human IgG detection. As for the experimental part: (§1) Specifically, the cell line was prepared by suspending in a FACS buffer solution at 1×10⁵ cells/100 μL, and treated with 1 μg each of T3.10, T3.01, T3.05, T3.06, T3.14, and T3.18. The cells were washed twice with a FACS buffer solution. The cells were stained with an anti-human IgG antibody (Biolegend). The negative control sample was stained only with an anti-human IgG antibody (Biolegend). The expression ratio of the stained cells was measured using BD LSR and analyzed using FlowJo software.
A general note: A flow cytometer gives signals particle by particle.

The target of assay [2] is T1, human FAP on HEK293-hFAP cells. As to the kind of experiment: flow cytometry on HEK293-hFAP cells, 1 ug protein per 1x10^5 cells, anti-human IgG detection (axis TMEkine-PE). As for the experimental part: as §1
The next assay has as its target T2, human LTβR on A375 cells (human, UniProt P36941 31-435).
T2 construct: whole, on cells; Endogenous receptor of a human cell line; also called LTβR expressing A375 cells; LTβR expressing cell line
As to the kind of experiment: flow cytometry on A375 cells, anti-human IgG detection (axis TMEkine-PE); concentration not printed on the sheet.

The target in assay [3] is T3, recombinant human lymphotoxin beta receptor (LTβR) (human, UniProt P36941 28-227, limits assumed).
T3 construct: neither construct is described; also called human LTβR; recombinant human LTβR protein
T3 sequence (P36941 28-227 limits assumed): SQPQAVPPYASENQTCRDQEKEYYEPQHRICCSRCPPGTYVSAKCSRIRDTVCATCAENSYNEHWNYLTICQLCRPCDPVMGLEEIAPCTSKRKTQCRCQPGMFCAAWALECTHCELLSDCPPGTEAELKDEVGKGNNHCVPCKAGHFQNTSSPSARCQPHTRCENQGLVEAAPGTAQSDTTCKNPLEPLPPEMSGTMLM
As to the kind of experiment: sandwich ELISA: plate coated with recombinant human LTbR 1 ug/mL, fusion protein from 1 nM in serial dilution, detected with biotinylated recombinant human FAP and streptavidin conjugate, OD 450 nm. The protocol: (i) The recombinant human LTβR protein was suspended at 1 μg/mL, dispensed in a 96-well immune plate, and treated for 24 hours. [0380] (ii) The wells were washed with a wash solution, and then blocking was performed for 1 hour with 1% BSA (bovine serum albumin, Sigma) solution. [0381] (iii) The wells were washed with a wash solution, and then T3.01, T3.14, T3.16, T3.17, T3.18 and T3.10, or T3.05, T3.06, T3.04, T3.14 and T3.10 were suspended at 1 nM and diluted by serial dilution. The wells were treated with the diluted T3.01, T3.14, T3.16, T3.17, T3.18 and T3.10, or T3.05, T3.06, T3.04, T3.14 and T3.10 for 2 hours. […] (iv) The wells were washed with a wash solution, and then treated with the human recombinant FAP-biotin diluted at 0.5 μg/mL for 2 hours. [0383] (v) The wells were washed with a wash solution, and then treated with streptavidin-RP for 20 minutes. [0384] (vi) The wells were washed with a wash solution, and then treated with a substrate solution for 20 minutes. [0385] (vii) The wells were treated with a stop solution, and the absorbance was measured at 450 nm.
A general note: An ELISA detects its analyte on a solid surface through an enzyme-linked reagent.

The target in assay [4] is T4, recombinant human herpes virus entry mediator (HVEM) (human, UniProt Q92956 39-202).
T4 construct: neither construct is described; also called human HVEM; recombinant human HVEM protein (R&D systems)
T4 sequence (looked up): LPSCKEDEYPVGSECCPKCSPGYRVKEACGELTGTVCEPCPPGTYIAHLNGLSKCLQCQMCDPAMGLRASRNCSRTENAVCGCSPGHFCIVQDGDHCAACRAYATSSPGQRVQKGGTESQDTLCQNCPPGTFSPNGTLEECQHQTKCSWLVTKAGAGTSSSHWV
As to the kind of experiment: sandwich ELISA: plate coated with recombinant human HVEM 1 ug/mL, fusion protein from 1 nM in serial dilution, detected with biotinylated recombinant human FAP and streptavidin conjugate, OD 450 nm. As for the experimental part: Considering that LIGHT of the fusion protein must bind to the herpes virus entry mediator (HVEM) for the action, it was confirmed that T3.01 binds to the recombinant human HVEM, as follows: [0370] (i) The recombinant human HVEM protein (R&D systems) was suspended at 1 μg/mL, dispensed in a 96-well immune plate, and treated for 24 hours. [0371] (ii) The wells were washed with a wash solution, and then blocking was performed for 1 hour with 1% BSA (bovine serum albumin, Sigma) solution. [0372] (iii) The wells were washed with a wash solution, and then T3.01, T3.14, T3.16, T3.17, T3.18 and T3.10, or T3.05, T3.06, T3.04, T3.14 and T3.10 were suspended at 1 nM and diluted by serial dilution. The wells were treated with the diluted T3.01, T3.14, T3.16, T3.17, T3.18 and T3.10, or T3.05, T3.06, T3.04, T3.14 and T3.10 for 2 hours. [0373] (iv) The wells were washed with a wash solution, and then treated with the human recombinant FAP-biotin diluted at 0.5 μg/mL for 2 hours. [0374] (v) The wells were washed with a wash solution, and then treated with streptavidin-RP for 20 minutes. [0375] (vi) The wells were washed with a wash solution, and then treated with a substrate solution for 20 minutes. [0376] (vii) The wells were treated with a stop solution, and the absorbance was measured at 450 nm.

T2 sequence (P36941 31-435): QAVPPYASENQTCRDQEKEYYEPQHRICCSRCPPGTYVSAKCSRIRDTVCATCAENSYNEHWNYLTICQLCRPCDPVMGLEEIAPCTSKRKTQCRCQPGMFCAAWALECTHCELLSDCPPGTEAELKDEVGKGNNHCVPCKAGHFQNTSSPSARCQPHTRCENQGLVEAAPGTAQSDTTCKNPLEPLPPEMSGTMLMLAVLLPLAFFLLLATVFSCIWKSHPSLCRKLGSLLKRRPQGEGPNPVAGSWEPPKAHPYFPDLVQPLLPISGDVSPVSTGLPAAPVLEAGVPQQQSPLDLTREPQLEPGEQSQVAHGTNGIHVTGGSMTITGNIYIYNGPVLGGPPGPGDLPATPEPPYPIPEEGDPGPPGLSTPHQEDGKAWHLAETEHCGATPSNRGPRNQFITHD

B1: T3.10 (anti-hu FAP/null, hu IgG1 DANG) (antibody)
heavy: QVQLVQSGAEVKKPGASVKVSCKTSRYTFTEYTIHWVRQAPGQRLEWIGGINPNNGIPNYNQKFKGRVTITVDTSASTAYMELSSLRSEDTAVYYCARRRIAYGYDEGHAMDYWGQGTLVTVSSASTKGPSVFPLAPSSKSTSGGTAALGCLVKDYFPEPVTVSWNSGALTSGVHTFPAVLQSSGLYSLSSVVTVPSSSLGTQTYICNVNHKPSNTKVDKKVEPKSCDKTHTCPPCPAPELLGGPSVFLFPPKPKDTLMISRTPEVTCVVVAVSHEDPEVKFNWYVDGVEVHNAKTKPREEQYGSTYRVVSVLTVLHQDWLNGKEYKCKVSNKALPAPIEKTISKAKGQPREPQVYTLPPSRDELTKNQVSLWCLVKGFYPSDIAVEWESNGQPENNYKTTPPVLDSDGSFFLYSKLTVDKSRWQQGNVFSCSVMHEALHNHYTQKSLSLSPGK
light: not shown
chain: not shown
notes: One-armed anti-FAP knob-into-hole antibody without LIGHT; used as the control for LIGHT activity
On to B1, for which the “percent of cells bound” value in assay [1] is no less than 99%. Further, in assay [2], the “percent of cells in the positive gate” value came out at 99.3%. Moreover, the binding result with human LTβR on A375 cells is “no binding”; in assay [3], “no binding (tested: 1000 pM)”; in assay [4], “no binding (tested: 1000 pM)”.
